Source: paper PMC6134095, “Structural Analysis of the Interaction between the Bacterial Cell Division Proteins FtsQ and FtsB” (mBio, 2018)
Each block holds one binder with its values, some of them ahead of it.

Experiments:
[1] = target: T1, FtsQ (58–276) and FtsB (22–103) added together (Escherichia coli strain K-12 | E. coli, UniProt P06136 58-276; P0A6S5 22-103); assay: SPR; FtsL (58–121) immobilised on a CM5 chip by amide coupling (~3,300 RU); Biacore T200, 20°C; 10 mM HEPES pH 7.4, 150 mM NaCl, 0.4% glycerol; FtsQ (58–276) and FtsB (22–103) from 40 µM each, alone or in combination; settings: both partners purified
T1 construct: FtsQ, Escherichia coli K-12, periplasmic domain, residues 58-276; as m1; as m2; The two proteins were injected in combination (40 µM each at the start of the dilution series) over immobilised FtsL; also called FtsB and FtsQ; FtsQB complex; source: E. coli C41(DE3), each purified separately (HisTrap, Sephacryl S300), injected in combination
T1 sequence (P06136 58-276, chain 1 of 2, one chain of several): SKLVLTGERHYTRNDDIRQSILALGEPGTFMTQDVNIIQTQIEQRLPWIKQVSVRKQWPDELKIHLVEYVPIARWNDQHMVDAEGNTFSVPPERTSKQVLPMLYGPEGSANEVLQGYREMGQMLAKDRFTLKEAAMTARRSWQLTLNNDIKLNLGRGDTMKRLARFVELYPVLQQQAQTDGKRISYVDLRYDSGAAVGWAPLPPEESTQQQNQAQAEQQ

[2] = target: T2, FtsQ (58–276), periplasmic domain of E. coli FtsQ (Escherichia coli strain K-12, UniProt P06136 58-276); assay: SPR; FtsQ (58–276) immobilised on a CM5 chip by amide coupling (~1,000 RU); Biacore T200, 20°C; 10 mM HEPES pH 7.4, 150 mM NaCl, 0.4% glycerol; analytes injected 120 s, 600 s dissociation, 1:2 dilution series, triplicate; settings: both partners purified
T2 construct: FtsQ, Escherichia coli K-12, periplasmic domain (alpha and beta domains), residues 58-276; construct printed as M-58-276-GSH6; No tag cleavage is described; also called FtsQ (residues 58 to 276); Q: M-58-276-GSH6; source: E. coli C41(DE3), purified (HisTrap, Sephacryl S300); not shown: His6, C-terminal, kept
T2 sequence (P06136 58-276): as the sequence (P06136 58-276, chain 1 of 2, one chain of several) above

[3] = target: the molecule itself; assay: crystal structure; FtsQ (58–276) with FtsB (22–103), co-purified complex at 6 mg/ml; P4(1)2(1)2, 2.6 Å, molecular replacement; 0.15 M potassium thiocyanate, 20% PEG 550 MME, 0.1 M sodium cacodylate pH 6.5, 19°C

Kd [1]: 11 µM
B1: FtsL (58–121), periplasmic domain of E. coli FtsL (domain or fragment, UniProt P0AEN4 58-121, looked up)
chain: HHTRLLTAQREQLVLERDALDIEWRNLILEENALGDHSRVERIATEKLQMQHVDPSQENIVVQK
notes: FtsL, E. coli, periplasmic domain, residues 58-121; Cloned into pET15b like FtsB; source: E. coli C41(DE3), purified (HisTrap, Sephacryl S300)

Kd [2]: 0.8 µM
B2: FtsB (22–103), periplasmic domain of E. coli FtsB (domain or fragment, UniProt P0A6S5 22-103, looked up)
chain: GKNGIHDYTRVNDDVAAQQATNAKLKARNDQLFAEIDDLNGGQEALEERARNELSMTRPGETFYRLVPDASKRAQSAGQNNR
notes: No tag cleavage is described; source: E. coli C41(DE3), purified (HisTrap, Sephacryl S300); not shown: His6, N-terminal, kept
binding result [3]: binds
